Where a chain is given by its changes, count along the chain named.
B1: H01L04: anti-MUC5AC humanized antibody, H01 (SEQ ID NO: 1) and L04 (SEQ ID NO: 8), tested ^111In-labeled (conjugate)
VH: EVQLLESGGGLVQPGGSLRLSCAASGFTFSNYGMSWVRQAPGKGLEWVSTISNSGRYTYFPDSVKGRFTISRDNSKNTLYLQMNSLRAEDTALYYCTRHLDYANYDAMDYWGQGTLVTVSS
VL: DIVMTQSPDSLAVSLGERATINCKASKSVTTSDFSYLHWYQQKPGQPPKLLIYLASNLESGVPDRFSGSGSGTDFTLTISSLQAEDVAVYYCQHSREFPWTFGGGTKLEIK
modifications: 111In label; Humanaized antibody heavy chain variable region 1 (H01); Humanaized antibody light chain variable region 4 (L04)
B2: H04L04: anti-MUC5AC humanized antibody, H04 (SEQ ID NO: 4) and L04 (SEQ ID NO: 8), tested ^111In-labeled (conjugate)
VH: B1 VH with A24V, K76R, S85T, L93V, L116P
VL: B1 VL
modifications: 111In label; Humanaized antibody heavy chain variable region 4 (H04); Humanaized antibody light chain variable region 4 (L04)
B3: H02L04: anti-MUC5AC humanized antibody, H02 (SEQ ID NO: 2) and L04 (SEQ ID NO: 8), tested ^111In-labeled (conjugate)
VH: B1 VH with E1L, L5V, L11V, Q13R, V37I, S75A, T78S
VL: B1 VL
modifications: 111In label; Humanaized antibody heavy chain variable region 2 (H02); Humanaized antibody light chain variable region 4 (L04)

How the values were obtained:
[1] = system: CD-1 mice; experiment: Urinary renal toxicity marker (urinary NGAL/creatinine ratio by ELISA); assay type: in vivo; conditions: urine 16 weeks after administration of ^225Ac-labeled antibody (15 kBq/mouse), n=4 to 5
Protocol: Whether combined administration of a ^225Ac-labeled anti-MUC5AC humanized antibody prepared using ^225Ac-labeled DOTAGA-DBCO and a compound expected to have a renal protective effect (renal protective agent) reduces delayed renal toxicity caused by radiation emitted from ^225Ac or ^225Ac daughter nuclide was evaluated. […]
During the observation period, body weight measurement, blood cell measurement, and renal toxicity marker measurement were performed over time and signs of toxicity were evaluated.
Urine was collected from each individual 16 weeks after the administration of the ^225Ac-labeled anti-MUC5AC humanized antibody, and neutrophil gelatinase-associated lipocalin (NGAL), and creatinine concentration of the urine samples were measured by ELISA. […] The NGAL value corrected for urine concentration was calculated by dividing the obtained NGAL value by the creatinine value (urinary NGAL/creatinine ratio, hereinafter referred to as urinary N/C ratio). The calculated urinary N/C ratio was confirmed using Stat PreClinica (manufactured by Takumi Information Technology Co., Ltd.) for the homoscedasticity of the measured values. […]

[2] = system: CD-1 mice; experiment: Autopsy and measurement of kidney weight; assay type: in vivo, mouse; conditions: at autopsy, 184 days from administration
Protocol: The ^225Ac-labeled anti-MUC5AC humanized antibody produced in Production Example 3 was administered to CD-1 mice (5 weeks old, male, manufactured by Charles River Japan), each group n=5 at a dose of 15 kBq/mouse and, as a renal protective agent, any of Zn-DTPA, furosemide, spironolactone, and eplerenone was administered in combination at the dosage, administration method, administration frequency, and initial administration timing shown in Table 1. That is, a group to which only ^225Ac-labeled anti-MUC5AC humanized antibody was administered (Comparative Example 1), a group to which ^225Ac-labeled anti-MUC5AC humanized antibody and each renal protective agent administered in combination (Example 1 to Example 7), and a group to which only a renal protective agent is administered without administration of ^225Ac-labeled anti-MUC5AC humanized antibody (Comparative Examples 2 to 5) were established. The dose of the ^225Ac-labeled anti-MUC5AC humanized antibody, each renal protective agent, and feeding conditions are shown in Table 1. The sustained release tablets used for the transdermal administration group of each renal protective agent were those manufactured by Innovative Research of America, and the mixed feed containing 0.004% of each renal protective agent used was manufactured by Oriental Yeast Co., Ltd.
On the final day of the observation period (184 days from the day of administration of the ^225Ac-labeled anti-MUC5AC humanized antibody), euthanasia and autopsy were performed by exsanguination under isoflurane anesthesia. After autopsy, the kidneys were collected and weighed. The obtained organ weight measurement results (excluding Example 7) were confirmed for the homoscedasticity of the measured values. Since homoscedasticity was confirmed for all items, a significant difference test was performed using the Tukey method, which is a parametric test. The significance level was set to 5%.

[3] = system: SW1990 tumor-bearing mice; experiment: SPECT-CT imaging of ^111In-labeled antibodies, VOI analysis and absorbed dose calculation; assay type: in vivo, Balb/c nude mice; conditions: half-life converted from ^111In to ^225Ac, sphere model; for SPECT absorbed dose liver: mean liver weight 1.15 g; for SPECT absorbed dose tumor: tumor volume assumed 150 mm^3
Protocol: To find an anti-MUC5AC antibody with high tumor accumulation ability and high maximum tolerated dose, various antibodies were labeled with ^111In, administered to tumor-bearing mice, and SPECT-CT imaging was performed. Cumulative amount of radioactivity and absorbed dose in tumor and liver were calculated and compared using the obtained images.
(§1) Human pancreatic cancer cell line SW1990 (0.7×10^7 cells) were subcutaneously administered to Balb/c nude mice (male) from the flank to the back thereof.
(§2) When the tumor size reached about 150-300 mm^3 14 days after transplantation of SW1990, various ^111In-labeled antibodies prepared in Reference Example 1-1 were administered from the tail vein of the mice. The tumor volume was calculated from the following calculation formula.
SPECT-CT imaging (small animal SPECT-CT apparatus: FX-3000, manufactured by Trifoil) was performed under the conditions in the following Table. The time points for imaging were 1, 6, 24, 48, 72, and 168 hr after administration. Image reconstruction was performed by the OSEM method for SPECT and the FBP method for CT. A VOI (volume of interest, three-dimensional ROI) analysis of the tumor and liver at each time point was performed. The count number per organ volume was corrected to % ID/g, the physical half-life was converted from ^111In to ^225Ac, the difference in physical half-life was corrected, and the time activity curve with the biological half-life added was obtained. The cumulative radioactivity amount was calculated from the integrated value of this time activity curve, and the absorbed dose was calculated in a sphere model (OLINDA/EXM ver2.0), and this was compared and examined for each antibody. However, for H01L03, a decrease in the time activity curve was not observed 168 hr after administration. Thus, the biological half-life was not considered and only the physical half-life was added.
When the threshold dose of liver was assumed to be 30 Gy, the maximum tolerated dose was estimated to be 3.90 MBq with a humanized antibody (H01L03) and 0.43 MBq with a chimeric antibody. The maximum tolerated dose (MBq) was calculated by threshold dose (Gy)/absorbed dose (Gy/MBq).
(§3) In the Table, the tumor volume was calculated assuming 150 mm^3 in the absorbed dose of SPECT. The absorbed dose of the liver was calculated based on the mean (1.15±0.14 g, n=19) of the weight of the mouse liver used in this Reference Example. The numerical value of the biodistribution was expressed by the mean±standard deviation of n=4 (however, n=3 for H02L04).

[4] = system: SW1990 tumor-bearing mice; experiment: Biodistribution and excretion route 168 hr after administration of ^111In-labeled antibodies; assay type: in vivo, Balb/c nude mice; conditions: ^111In-labeled antibody, tail vein; mean ± SD n=4 (n=3 for H02L04)
Protocol: as §1, §2
A graph showing the results of confirming the biodistribution and the excretion route after the completion of SPECT-CT imaging 168 hr after administration are shown in FIG. 11.
as §3

| Molecule | N/C ratio (urinary NGAL/creatinine ratio) [1] | body weight [2] [g] | kidney weight [2] [g] | kidney weight/body weight ratio [2] | SPECT absorbed dose liver [3] [Gy/MBq] | SPECT absorbed dose tumor [3] [Gy/MBq] | biodistribution at 168 hr after administration, blood [4] [% ID/g] | biodistribution at 168 hr after administration, kidney [4] [% ID/g] | biodistribution at 168 hr after administration, liver [4] [% ID/g] | biodistribution at 168 hr after administration, spleen [4] [% ID/g] | biodistribution at 168 hr after administration, tumor [4] [% ID/g] |
| --- | --- | --- | --- | --- | --- | --- | --- | --- | --- | --- | --- |
| O=C([O-])CN(CCN(CC(=O)[O-])CC(=O)[O-])CCN(CC(=O)[O-])CC(=O)[O-].[Na+].[Na+].[Na+].[Zn+2] [Comparative Example 2, Zn-DTPA] | 1.1 ± 0.60 | 44.48 ± 4.5 | 0.75 ± 0.12 | 0.017 ± 0.001 | – | – | – | – | – | – | – |
| B1 | – | – | – | – | 33.4 | 15.3 | 2.1 ± 0.8 | 1.1 ± 0.3 | 3.1 ± 0.9 | 3.8 ± 1.2 | 12.9 ± 2.6 |
| B2 | – | – | – | – | 35.4 | 15.0 | 3.8 ± 0.7 | 1.6 ± 0.2 | 3.9 ± 1.4 | 3.4 ± 0.3 | 17.2 ± 4.2 |
| B3 | – | – | – | – | 27.0 | 13.7 | 2.6 ± 2.3 | 1.4 ± 1.0 | 2.7 ± 0.7 | 4.0 ± 3.0 | 15.6 ± 6.2 |

— US20240207461A1, “RADIOACTIVE ANTITUMOR AGENT” (NIHON MEDI-PHYSICS CO., LTD., priority 2021, published 2024)
